In US20230183713A1, “SITE-SPECIFIC RECOMBINASES FOR EFFICIENT AND SPECIFIC GENOME EDITING” (TECHNISCHE UNIVERSITÄt DRESDEN, published 2023):

Legend:
[1] = molecular target: T1, Cre recombinase monomer with W315C mutation
T1 chain: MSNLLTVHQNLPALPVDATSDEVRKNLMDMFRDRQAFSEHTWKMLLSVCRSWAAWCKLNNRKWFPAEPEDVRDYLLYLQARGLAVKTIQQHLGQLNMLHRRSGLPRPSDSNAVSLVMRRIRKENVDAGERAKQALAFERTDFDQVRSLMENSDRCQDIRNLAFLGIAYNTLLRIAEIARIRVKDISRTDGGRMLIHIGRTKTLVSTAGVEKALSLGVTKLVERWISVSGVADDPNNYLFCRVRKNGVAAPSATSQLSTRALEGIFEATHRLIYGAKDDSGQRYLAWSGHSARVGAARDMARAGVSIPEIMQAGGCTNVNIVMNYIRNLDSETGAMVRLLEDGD

[2] = molecular target: T2, Cre recombinase monomer with W315T mutation
T2 chain: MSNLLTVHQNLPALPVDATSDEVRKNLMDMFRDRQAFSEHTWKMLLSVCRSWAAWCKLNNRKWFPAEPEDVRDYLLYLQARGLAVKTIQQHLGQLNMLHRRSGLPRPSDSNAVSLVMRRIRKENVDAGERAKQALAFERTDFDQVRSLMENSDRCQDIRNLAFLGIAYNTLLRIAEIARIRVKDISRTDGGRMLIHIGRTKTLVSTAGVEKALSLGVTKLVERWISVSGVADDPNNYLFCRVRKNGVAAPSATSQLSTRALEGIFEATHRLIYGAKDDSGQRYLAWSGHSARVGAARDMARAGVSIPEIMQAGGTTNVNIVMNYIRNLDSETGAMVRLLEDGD

[3] = molecular target: T3, Cre recombinase monomer with Y324A mutation
T3 chain: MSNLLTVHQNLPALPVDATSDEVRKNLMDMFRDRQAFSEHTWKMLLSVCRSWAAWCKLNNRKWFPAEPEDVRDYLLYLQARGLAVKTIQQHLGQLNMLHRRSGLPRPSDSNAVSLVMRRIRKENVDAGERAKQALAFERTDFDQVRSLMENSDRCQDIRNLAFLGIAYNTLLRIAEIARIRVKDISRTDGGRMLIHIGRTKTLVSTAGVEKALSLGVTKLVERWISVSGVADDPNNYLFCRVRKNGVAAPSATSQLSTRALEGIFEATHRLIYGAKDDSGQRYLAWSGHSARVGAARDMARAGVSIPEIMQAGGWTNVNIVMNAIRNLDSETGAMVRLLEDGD

[4] = molecular target: T4, Cre recombinase monomer with Y324C mutation
T4 chain: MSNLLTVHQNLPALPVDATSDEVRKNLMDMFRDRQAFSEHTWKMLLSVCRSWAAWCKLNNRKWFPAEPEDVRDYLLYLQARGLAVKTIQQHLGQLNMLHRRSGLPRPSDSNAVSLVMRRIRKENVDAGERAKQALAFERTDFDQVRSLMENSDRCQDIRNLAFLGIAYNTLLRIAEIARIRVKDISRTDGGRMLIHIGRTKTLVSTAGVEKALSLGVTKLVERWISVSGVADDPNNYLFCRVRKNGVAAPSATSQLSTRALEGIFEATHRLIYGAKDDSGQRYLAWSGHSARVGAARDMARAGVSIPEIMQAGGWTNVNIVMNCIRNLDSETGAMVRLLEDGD

[5] = molecular target: T5, Cre recombinase monomer with Y324L mutation
T5 chain: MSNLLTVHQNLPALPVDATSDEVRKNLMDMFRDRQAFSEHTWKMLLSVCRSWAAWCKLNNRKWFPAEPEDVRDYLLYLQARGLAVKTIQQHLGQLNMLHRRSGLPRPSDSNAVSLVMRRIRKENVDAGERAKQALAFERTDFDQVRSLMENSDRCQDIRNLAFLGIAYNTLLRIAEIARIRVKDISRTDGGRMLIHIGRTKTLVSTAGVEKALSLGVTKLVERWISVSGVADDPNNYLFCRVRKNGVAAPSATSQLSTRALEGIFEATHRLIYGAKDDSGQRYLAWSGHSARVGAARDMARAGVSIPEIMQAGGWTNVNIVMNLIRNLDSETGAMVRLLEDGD

[6] = molecular target: T6, Cre recombinase monomer with Y324N mutation
T6 chain: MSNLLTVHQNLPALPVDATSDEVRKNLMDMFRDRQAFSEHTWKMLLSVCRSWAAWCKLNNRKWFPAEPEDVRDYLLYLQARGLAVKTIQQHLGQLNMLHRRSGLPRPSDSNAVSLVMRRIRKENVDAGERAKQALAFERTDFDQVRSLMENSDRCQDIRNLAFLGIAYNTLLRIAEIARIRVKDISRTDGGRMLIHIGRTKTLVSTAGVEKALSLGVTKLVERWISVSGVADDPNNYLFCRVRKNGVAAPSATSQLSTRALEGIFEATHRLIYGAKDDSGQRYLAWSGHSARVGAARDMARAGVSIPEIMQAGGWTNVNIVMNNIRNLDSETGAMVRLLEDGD

[7] = molecular target: T7, Cre recombinase monomer with Y324Q mutation
T7 chain: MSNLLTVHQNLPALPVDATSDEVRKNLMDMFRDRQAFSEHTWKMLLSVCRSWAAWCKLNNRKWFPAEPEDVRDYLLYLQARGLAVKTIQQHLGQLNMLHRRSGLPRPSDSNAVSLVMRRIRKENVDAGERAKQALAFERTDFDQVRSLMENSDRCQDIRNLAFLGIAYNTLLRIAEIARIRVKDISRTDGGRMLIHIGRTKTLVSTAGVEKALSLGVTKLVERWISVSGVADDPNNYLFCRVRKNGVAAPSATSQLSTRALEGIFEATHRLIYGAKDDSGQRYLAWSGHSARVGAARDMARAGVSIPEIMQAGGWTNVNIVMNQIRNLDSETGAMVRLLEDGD

[8] = molecular target: T8, Cre recombinase monomer with Y324T mutation
T8 chain: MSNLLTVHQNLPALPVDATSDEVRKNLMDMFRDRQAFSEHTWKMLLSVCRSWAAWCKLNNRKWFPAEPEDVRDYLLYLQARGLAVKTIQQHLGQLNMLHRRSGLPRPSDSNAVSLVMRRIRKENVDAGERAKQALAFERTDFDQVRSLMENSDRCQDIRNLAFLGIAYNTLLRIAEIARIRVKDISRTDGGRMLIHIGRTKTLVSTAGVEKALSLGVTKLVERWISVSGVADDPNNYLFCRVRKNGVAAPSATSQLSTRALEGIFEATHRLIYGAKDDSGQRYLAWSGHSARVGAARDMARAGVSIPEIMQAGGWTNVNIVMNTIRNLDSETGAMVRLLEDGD

B1: Cre recombinase monomer with Q311R mutation (protein)
chain: MSNLLTVHQNLPALPVDATSDEVRKNLMDMFRDRQAFSEHTWKMLLSVCRSWAAWCKLNNRKWFPAEPEDVRDYLLYLQARGLAVKTIQQHLGQLNMLHRRSGLPRPSDSNAVSLVMRRIRKENVDAGERAKQALAFERTDFDQVRSLMENSDRCQDIRNLAFLGIAYNTLLRIAEIARIRVKDISRTDGGRMLIHIGRTKTLVSTAGVEKALSLGVTKLVERWISVSGVADDPNNYLFCRVRKNGVAAPSATSQLSTRALEGIFEATHRLIYGAKDDSGQRYLAWSGHSARVGAARDMARAGVSIPEIMRAGGWTNVNIVMNYIRNLDSETGAMVRLLEDGD
Median dimer activity (recombination on loxP) [1]: 84% | Median dimer activity (recombination on loxP) [2]: 66% | Median dimer activity (recombination on loxP) [3]: 93% | Median dimer activity (recombination on loxP) [4]: 93% | Median dimer activity (recombination on loxP) [5]: 95% | Median dimer activity (recombination on loxP) [6]: 81% | Median dimer activity (recombination on loxP) [7]: 72% | Median dimer activity (recombination on loxP) [8]: 85%
